{"source": "paper PMC11417369", "about": "“DNA sequence and chromatin differentiate sequence-specific transcription factor binding in the human malaria parasite Plasmodium falciparum”", "data": [{"target": "T1, AP2-HC D1 (Plasmodium falciparum, UniProt Q8IKR9 1316-1374)", "T1 sequence": "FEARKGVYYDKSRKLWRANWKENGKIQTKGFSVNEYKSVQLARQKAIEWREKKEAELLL", "test": "gcPBM; about 25 ug protein; PBS, 1% milk, 0.2 mg/ml BSA, salmon testes DNA, 0.03% Triton X-100", "settings": "tags: N-terminal GST (pGEX-4T-1), kept; label: surface-attached array probe", "values": [{"binder": "CACACA_site6324 (dsDNA) DNA 1: CATAAATCAGCCATAACACACATACCTATATACATA DNA 2: TATGTATATAGGTATGTGTGTTATGGCTGATTTATG", "binding signal": "10.3 ln median PBM intensity, better of two orientations"}, {"binder": "CACACA_site2432 (dsDNA) DNA 1: CAAACCCACCAACACACACACACAAAAATGATTAAA DNA 2: TTTAATCATTTTTGTGTGTGTGTGTTGGTGGGTTTG", "binding signal": "10.5 ln median PBM intensity, better of two orientations"}, {"binder": "CACACA_site270 (dsDNA) DNA 1: AATACTTATTATGAAACACACACCAAAACTACATAA DNA 2: TTATGTAGTTTTGGTGTGTGTTTCATAATAAGTATT", "binding signal": "10.7 ln median PBM intensity, better of two orientations"}, {"binder": "CACACA_site6959 (dsDNA) DNA 1: GTTTCCTTAATATTCACACACATATCTATAATATAT DNA 2: ATATATTATAGATATGTGTGTGAATATTAAGGAAAC", "binding signal": "10.2 ln median PBM intensity, better of two orientations"}, {"binder": "CACACA_site1725 (dsDNA) DNA 1: CATATATACGCATACACACACACACCCACACCCACA DNA 2: TGTGGGTGTGGGTGTGTGTGTGTATGCGTATATATG", "binding signal": "10.7 ln median PBM intensity, better of two orientations"}, {"binder": "CACACA_site6202 (dsDNA) DNA 1: CTCATCCTTACATACACACACATATATTTATTTATA DNA 2: TATAAATAAATATATGTGTGTGTATGTAAGGATGAG", "binding signal": "10.2 ln median PBM intensity, better of two orientations"}, {"binder": "CACACA_site8795 (dsDNA) DNA 1: CTTATATATTGCCCTTCACACACACCCATATATATA DNA 2: TATATATATGGGTGTGTGTGAAGGGCAATATATAAG", "binding signal": "10.6 ln median PBM intensity, better of two orientations"}, {"binder": "CACACA_site1963 (dsDNA) DNA 1: AACTTGTATATATACACACACACACTGTCTTTTTTT DNA 2: AAAAAAAGACAGTGTGTGTGTGTATATATACAAGTT", "binding signal": "10.5 ln median PBM intensity, better of two orientations"}, {"binder": "CACACA_site8866 (dsDNA) DNA 1: CCGCCATTGTACCATCCACACACATATATATATGTA DNA 2: TACATATATATATGTGTGTGGATGGTACAATGGCGG", "binding signal": "10.3 ln median PBM intensity, better of two orientations"}, {"binder": "CACACA_site4573 (dsDNA) DNA 1: TATGCAAGGAACCACACACACACACCGAAATGTATA DNA 2: TATACATTTCGGTGTGTGTGTGTGGTTCCTTGCATA", "binding signal": "10.6 ln median PBM intensity, better of two orientations"}, {"binder": "CACACA_site7567 (dsDNA) DNA 1: TGCAACAAAATAAACACACACACACTAACACAAAAA DNA 2: TTTTTGTGTTAGTGTGTGTGTGTTTATTTTGTTGCA", "binding signal": "10.5 ln median PBM intensity, better of two orientations"}, {"binder": "CACACA_site4316 (dsDNA) DNA 1: TGAATAAATCAAAGCACACATACACAGACATATATA DNA 2: TATATATGTCTGTGTATGTGTGCTTTGATTTATTCA", "binding signal": "10.4 ln median PBM intensity, better of two orientations"}, {"binder": "CACACA_site8848 (dsDNA) DNA 1: ATATAAATTTTTTATGAACACACAAATACAGACACT DNA 2: AGTGTCTGTATTTGTGTGTTCATAAAAAATTTATAT", "binding signal": "10.3 ln median PBM intensity, better of two orientations"}, {"binder": "CACACA_site8543 (dsDNA) DNA 1: ATTAATATATAACGTGCACACACACCGTTACGTATG DNA 2: CATACGTAACGGTGTGTGTGCACGTTATATATTAAT", "binding signal": "10.3 ln median PBM intensity, better of two orientations"}, {"binder": "CACACA_site7688 (dsDNA) DNA 1: AATATAAATAAAAACACACACAATGGTACCTATATA DNA 2: TATATAGGTACCATTGTGTGTGTTTTTATTTATATT", "binding signal": "10.3 ln median PBM intensity, better of two orientations"}, {"binder": "CACACA_site7791 (dsDNA) DNA 1: AAAATTAACCGTAACACACACACATATAAATATGTA DNA 2: TACATATTTATATGTGTGTGTGTTACGGTTAATTTT", "binding signal": "10.4 ln median PBM intensity, better of two orientations"}, {"binder": "CACACA_site3184 (dsDNA) DNA 1: TACTAAAACCCATACACACACATATATATAGTACCA DNA 2: TGGTACTATATATATGTGTGTGTATGGGTTTTAGTA", "binding signal": "10.2 ln median PBM intensity, better of two orientations"}, {"binder": "CACACA_site1542 (dsDNA) DNA 1: AATGTACAAATACGTACACACATATATATATATATA DNA 2: TATATATATATATATGTGTGTACGTATTTGTACATT", "binding signal": "10.2 ln median PBM intensity, better of two orientations"}, {"binder": "CACACA_site65 (dsDNA) DNA 1: CATGTAATATTAAACACACACTCATATAACACAATA DNA 2: TATTGTGTTATATGAGTGTGTGTTTAATATTACATG", "binding signal": "10.2 ln median PBM intensity, better of two orientations"}, {"binder": "CACACA_site8083 (dsDNA) DNA 1: AAAAAAAAAAAAAAAACACACACATGCACATCATAT DNA 2: ATATGATGTGCATGTGTGTGTTTTTTTTTTTTTTTT", "binding signal": "10.4 ln median PBM intensity, better of two orientations"}, {"binder": "CACACA_site4891 (dsDNA) DNA 1: TAATAAATAGGACACACACACATATATATATATTAT DNA 2: ATAATATATATATATGTGTGTGTGTCCTATTTATTA", "binding signal": "10.5 ln median PBM intensity, better of two orientations"}, {"binder": "CACACA_site9055 (dsDNA) DNA 1: ATATATATATATATTGTACACACATTTATGCATATA DNA 2: TATATGCATAAATGTGTGTACAATATATATATATAT", "binding signal": "10.3 ln median PBM intensity, better of two orientations"}, {"binder": "CACACA_site4209 (dsDNA) DNA 1: TATATATATGGACACACACACACCAAAGCGTAGCGC DNA 2: GCGCTACGCTTTGGTGTGTGTGTGTCCATATATATA", "binding signal": "10.3 ln median PBM intensity, better of two orientations"}, {"binder": "CACACA_site8328 (dsDNA) DNA 1: TTGGGTCAAACATAAACACACACAAAAAGAAAAAAT DNA 2: ATTTTTTCTTTTTGTGTGTGTTTATGTTTGACCCAA", "binding signal": "10.7 ln median PBM intensity, better of two orientations"}, {"binder": "CACACA_site9385 (dsDNA) DNA 1: AATATATGTTTAATTTCACACACAAATATACATTTT DNA 2: AAAATGTATATTTGTGTGTGAAATTAAACATATATT", "binding signal": "10.2 ln median PBM intensity, better of two orientations"}, {"binder": "CACACA_site498 (dsDNA) DNA 1: TACACCCACCAACACACACACACACCCAAAAAAAAA DNA 2: TTTTTTTTTGGGTGTGTGTGTGTGTTGGTGGGTGTA", "binding signal": "10.5 ln median PBM intensity, better of two orientations"}, {"binder": "CACACA_site336 (dsDNA) DNA 1: GGAGCACCCAGACACACACACACATATATATATATA DNA 2: TATATATATATATGTGTGTGTGTGTCTGGGTGCTCC", "binding signal": "10.6 ln median PBM intensity, better of two orientations"}, {"binder": "CACACA_site1177 (dsDNA) DNA 1: TTAATTTATAAAAACACACACAGGTAAAAAGGTGCA DNA 2: TGCACCTTTTTACCTGTGTGTGTTTTTATAAATTAA", "binding signal": "10.3 ln median PBM intensity, better of two orientations"}, {"binder": "CACACA_site7630 (dsDNA) DNA 1: ATTATACACGCGCGCACACACAACAAAAAAAAAAAA DNA 2: TTTTTTTTTTTTGTTGTGTGTGCGCGCGTGTATAAT", "binding signal": "10.3 ln median PBM intensity, better of two orientations"}, {"binder": "CACACA_site4006 (dsDNA) DNA 1: ATAAGGAAGGGATGCACACAAAAGGGTACATAAGAA DNA 2: TTCTTATGTACCCTTTTGTGTGCATCCCTTCCTTAT", "binding signal": "10.5 ln median PBM intensity, better of two orientations"}, {"binder": "CACACA_site7641 (dsDNA) DNA 1: TACATACACAGACACACACACATATAAATATAAATA DNA 2: TATTTATATTTATATGTGTGTGTGTCTGTGTATGTA", "binding signal": "10.4 ln median PBM intensity, better of two orientations"}, {"binder": "CACACA_site8256 (dsDNA) DNA 1: AAATAAAGCACACCGACACACACATATATATATATA DNA 2: TATATATATATATGTGTGTGTCGGTGTGCTTTATTT", "binding signal": "10.4 ln median PBM intensity, better of two orientations"}]}]}
